Reference: patent US11066455B2, “Tmem100 peptides and variants thereof and their use in treating or preventing diseases or conditions” (The Johns Hopkins University, priority 2014, dated 2021)

What was measured:
Format in all cases: cell-based
TRPV1 = experiment: Cell-attached single-channel recording in CHO cells, CAP-induced activity (NPo); conditions: Vh=-60 mV
Protocol: (§1) Recordings were made in cell-attached single-channel or whole-cell voltage clamp configurations at 22-24° C. from the somata of small-to-medium mouse DRG neurons (15-35 pF) or CHO cells. For whole-cell configuration, holding potential (Vh) is −60 mV. Data were acquired and analyzed using an Axopatch 200B amplifier and pCLAMP9.0 software (Molecular Devices, Sunnyvale, Calif.). Borosilicate pipettes (Sutter, Novato, Calif.) were pulled and polished to resistances of 3-5 MΩ (in whole-cell and single-channel pipette solutions). Access resistance (Rs) was compensated (40-80%) when appropriate up to the value 7-10 MΩ for whole-cell configuration. Whole-cell recording data were filtered at 0.5 kHz and sampled at 2 kHz. Single-channels currents were filtered with an 8-pole, low pass Bessel filter at 0.1 kHz and sampled at 0.5 kHz, since dwelling time (τ) of the TRPA1 and TRPV1 single-currents were >0.5 sec. Whole-cell recorded data were rejected when Rs changed >20% during recording, leak currents were >100 pA, or input resistance was <200 MΩ.
(§2) Single-channel unitary current (i) was determined from the best-fit Gaussian distribution of amplitude histograms. Single-channel activity was analyzed as NPo=I/i, where I is the mean total current in a patch and i is unitary current at this voltage. For single channel slope conductances, linear fitting was used separately for positive and negative holding potentials. The slope conductances presented in figures were determined from fitting negative hold potentials (from −60 to 0 mV). The single-channel recording data were analyzed with Clampfit 9 software. This has an “event detection analysis” function that analyzes current traces and determines the number of channels in the patch (N), how many sub-conductances are present, and what the main conductance is. In order to increase the accuracy of the Po measurement, only patches containing fewer than 3 channels were used. For patches containing both TRPA1 and TRPV1, only those with equal numbers of TRPA1 and TRPV1 were used. This was monitored in each recording by applying MO and then CAP.
(§3) Standard external solution (SES) for whole-cell patch recording contained (in mM): 140 NaCl, 5 KCl, 2 CaCl2, 1 MgCl2, 10 D-glucose and 10 HEPES, pH 7.4. Vehicle, which is 0.01% DMSO, was added to external solutions. The bath solution for single-channel recording (SES-SCh) of TRP currents consisted of (in mM): 100 K-gluconate, 4 KCl, 1 MgCl2, 1 EGTA, 10 D-glucose and 10 Hepes (pH 7.3). The standard pipette solution (SIS) for the whole-cell configurations contained (in mM): 140 KCl, 1 MgCl2, 1 CaCl2, 10 EGTA, 10 D-glucose, 10 HEPES, pH 7.3. […] The baseline activities of the cells were recorded for 1-2 min prior drug applications. […]

TRPA1-V1 complex = experiment: FRET with TIRF microscopy of TRPV1-CFP and TRPA1-YFP in COS-7 cells; conditions: compared to cells expressing only TRPA1-V1
Text: Expression vectors of pEYFP-TRPA1 (YFP on C-terminal part), pECFP-TRPV1 (CFP on C-terminal part), and pEYFP-N1 were transfected into COS-7 cells with FuGENE HD (Promega E2311), as previously described (Staruschenko et al., 2010). COS-7 cells were chosen since they have flat morphology and thus suitable for TIRF-FRET analysis. Moreover, previously it has been shown that CHO and COS cells express TRPA1 and TRPV1 to the same level (Staruschenko et al., 2010). Data from fixed cells were collected in separate facilities at University of Texas Health Science Center, San Antonio, and the Johns Hopkins University, respectively. […] Briefly, two days after transfection, the cells were fixed for 15 min with 4% paraformaldehyde in PBS and then imaged at the room temperature using total internal reflection fluorescence (TIRF) (also called evanescent-field) microscopy on an inverted Nikon Eclipse TE200U microscope equipped with a plain Apo TIRF 60× oil-immersion, high-resolution (1.45 NA) objective. […] Fluorescence images were collected and processed with a 16-bit, cooled charge-coupled device camera (Cascade 512F; Roper Scientific Inc.) interfaced to a PC running Metamorph software.
Each cell was photobleached by argon-ion laser (514 nm) at full power for 2 min. […] All images were analyzed in ImageJ. […]

TRPA1 [1] = system: T1, TRPA1; experiment: Cell-attached single-channel recording in CHO cells, MO-induced activity (NPo); conditions: Vh=-60 mV; co-expressed with TRPA1+TRPV1 (1:1:4) in CHO cells
T1 construct: MO (10 μM)-evoked Ca2+ influx; other: TRPA1+TRPV1+Tmem100-3Q (1:1:4) CHO cells; MO (10 μM)-gated whole-cell current density; other: Vh=-60 mV; TRPA1+TRPV1+Tmem100-3Q (1:1:4) CHO cells; MO (10 μM)-induced single-channel activity (NPo); co-expressed with TRPA1+TRPV1 (1:1:4) in CHO cells
Protocol: as §1, §2, §3

TRPA1 [2] = experiment: as above; conditions: Vh=-60 mV; co-expressed with TRPA1 only (1:4) in CHO cells
Protocol: as §1, §2, §3

[3] = co-expressed with TRPA1+TRPV1 (1:1:4) in CHO cells
[4] = co-expressed with TRPV1 only (1:4) in CHO cells

Molecule | CAP (100 nM)-induced single-channel activity (NPo) (TRPV1; [3]) | CAP (100 nM)-induced single-channel activity (NPo) (TRPV1; [4]) | enhancement of the TRPA1-TRPV1 interaction (FRET efficiency) (TRPA1-V1 complex) [%] | MO (10 μM)-induced single-channel activity (NPo) (TRPA1 [1]) | MO (10 μM)-induced single-channel activity (NPo) (TRPA1 [2]) | decrease of TRPA1-V1 FRET efficiency (TRPA1-V1 complex) [%]
Tmem100-3Q mutant (full-length, mouse) (protein) MTEESTKENLGAPKSPTPVTMEKNPKREVVVTTGPLVSEVQLMAATGGAELSCYRCIIPFAVVVFITGIVVTAVAYSFNSHGSIISIFGLVLLSSGLFLLASSALCWKVRQRNKKVQQQESQTALVVNQRCLFA | 1.08±0.17 | 0.73±0.12 | 43 | 0.16±0.06 | 1.05±0.14 | –
Tmem100: 134-amino acid two-transmembrane protein, regulator of TRPA1 (SEQ ID NO: 1/2), expressed in cells (protein, listed as Homo sapiens, listed as Mus musculus) chain 1: MTEEPIKEILGAPKAHMAATMEKSPKSEVVITTVPLVSEIQLMAATGGTELSCYRCIIPFAVVVFIAGIVVTAVAYSFNSHGSIISIFGLVVLSSGLFLLASSALCWKVRQRSKKAKRRESQTALVANQRSLFA chain 2: MTEESTKENLGAPKSPTPVTMEKNPKREVVVTTGPLVSEVQLMAATGGAELSCYRCIIPFAVVVFITGIVVTAVAYSFNSHGSIISIFGLVLLSSGLFLLASSALCWKVRQRNKKVKRRESQTALVVNQRCLFA | 0.82±0.14 | 0.45±0.1 | – | 1.05±0.14 | 0.64±0.18 | 34
